Tests used:
[1] = target: T1, human MET, cell-surface expressed (human, UniProt P08581 25-1390); test: FACS competition on A549 cells; competitor Ab237C
T1 construct: whole, on cells; Used for all assays on cells that carry wild-type human MET; the cell line is named under assay or readout; also called c-Met; hMET
Procedure: The binding of anti-MET antibodies to cell surface MET was analyzed by competition FACS analysis using A549 NSCLC cells (ATCC cat. no. CCL-185). […] A total of 3×10⁵ A549 NSCLC cells were added per dilution of antibody and incubated on ice for 1 hour. Cells were washed and a 1:100 dilution of PE-labeled goat anti-rat IgG antibody (BioLegend cat. no. 405406) in FACS buffer was added before incubation on ice for 1 hour. […] The geometric mean fluorescence intensity was plotted against antibody concentration. The IC₅₀ of each of the test antibodies was calculated relative to the IC₅₀ of the reference antibody.

[2] = target: T2, human MET-ECD with a His tag (MET-ECD-His) (human, UniProt P08581 25-932); test: competition ELISA on immobilised MET-ECD; competitor Ab237C
T2 construct: The ELISA sections speak of MET-ECD, MET-ECD-His or His-tagged MET extracellular domain; also called hu-MET-ECD; human cMET ECD
T2 sequence (P08581 other isoform, or with tags, fused parts or gaps): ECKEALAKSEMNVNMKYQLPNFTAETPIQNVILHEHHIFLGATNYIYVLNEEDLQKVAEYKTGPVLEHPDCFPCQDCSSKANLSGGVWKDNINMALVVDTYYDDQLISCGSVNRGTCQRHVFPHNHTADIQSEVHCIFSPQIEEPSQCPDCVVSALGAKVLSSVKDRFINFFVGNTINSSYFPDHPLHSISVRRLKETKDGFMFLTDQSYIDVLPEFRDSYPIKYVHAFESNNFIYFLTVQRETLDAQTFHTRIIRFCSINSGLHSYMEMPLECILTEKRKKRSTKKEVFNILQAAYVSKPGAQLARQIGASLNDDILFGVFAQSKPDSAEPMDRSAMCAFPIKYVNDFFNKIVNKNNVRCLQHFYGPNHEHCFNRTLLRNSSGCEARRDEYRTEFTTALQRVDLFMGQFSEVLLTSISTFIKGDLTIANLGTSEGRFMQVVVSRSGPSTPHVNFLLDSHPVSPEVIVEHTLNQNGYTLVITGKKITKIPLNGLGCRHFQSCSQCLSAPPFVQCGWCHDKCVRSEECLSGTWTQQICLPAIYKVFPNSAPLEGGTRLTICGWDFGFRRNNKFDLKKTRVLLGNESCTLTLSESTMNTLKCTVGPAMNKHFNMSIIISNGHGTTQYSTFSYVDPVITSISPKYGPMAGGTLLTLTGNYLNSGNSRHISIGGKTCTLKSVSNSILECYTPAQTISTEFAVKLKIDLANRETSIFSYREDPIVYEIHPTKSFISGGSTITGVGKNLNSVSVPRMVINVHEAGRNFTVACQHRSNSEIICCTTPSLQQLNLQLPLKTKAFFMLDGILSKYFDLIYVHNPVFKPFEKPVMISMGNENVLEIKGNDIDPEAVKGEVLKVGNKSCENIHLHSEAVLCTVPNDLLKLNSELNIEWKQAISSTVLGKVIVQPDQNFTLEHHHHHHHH
Procedure: The binding of anti-MET antibodies to recombinant MET extracellular domain (“MET-ECD”) was analyzed by competition ELISA. […] The reaction was stopped with 3M HCl, absorbance read at 450 nm on a Dynex Technologies MRX TC II plate reader and the binding curves plotted. Binding curves were used to calculate IC₅₀ values for each test antibody normalized to the IC₅₀ of the reference antibody.

T1 sequence (P08581 25-1390): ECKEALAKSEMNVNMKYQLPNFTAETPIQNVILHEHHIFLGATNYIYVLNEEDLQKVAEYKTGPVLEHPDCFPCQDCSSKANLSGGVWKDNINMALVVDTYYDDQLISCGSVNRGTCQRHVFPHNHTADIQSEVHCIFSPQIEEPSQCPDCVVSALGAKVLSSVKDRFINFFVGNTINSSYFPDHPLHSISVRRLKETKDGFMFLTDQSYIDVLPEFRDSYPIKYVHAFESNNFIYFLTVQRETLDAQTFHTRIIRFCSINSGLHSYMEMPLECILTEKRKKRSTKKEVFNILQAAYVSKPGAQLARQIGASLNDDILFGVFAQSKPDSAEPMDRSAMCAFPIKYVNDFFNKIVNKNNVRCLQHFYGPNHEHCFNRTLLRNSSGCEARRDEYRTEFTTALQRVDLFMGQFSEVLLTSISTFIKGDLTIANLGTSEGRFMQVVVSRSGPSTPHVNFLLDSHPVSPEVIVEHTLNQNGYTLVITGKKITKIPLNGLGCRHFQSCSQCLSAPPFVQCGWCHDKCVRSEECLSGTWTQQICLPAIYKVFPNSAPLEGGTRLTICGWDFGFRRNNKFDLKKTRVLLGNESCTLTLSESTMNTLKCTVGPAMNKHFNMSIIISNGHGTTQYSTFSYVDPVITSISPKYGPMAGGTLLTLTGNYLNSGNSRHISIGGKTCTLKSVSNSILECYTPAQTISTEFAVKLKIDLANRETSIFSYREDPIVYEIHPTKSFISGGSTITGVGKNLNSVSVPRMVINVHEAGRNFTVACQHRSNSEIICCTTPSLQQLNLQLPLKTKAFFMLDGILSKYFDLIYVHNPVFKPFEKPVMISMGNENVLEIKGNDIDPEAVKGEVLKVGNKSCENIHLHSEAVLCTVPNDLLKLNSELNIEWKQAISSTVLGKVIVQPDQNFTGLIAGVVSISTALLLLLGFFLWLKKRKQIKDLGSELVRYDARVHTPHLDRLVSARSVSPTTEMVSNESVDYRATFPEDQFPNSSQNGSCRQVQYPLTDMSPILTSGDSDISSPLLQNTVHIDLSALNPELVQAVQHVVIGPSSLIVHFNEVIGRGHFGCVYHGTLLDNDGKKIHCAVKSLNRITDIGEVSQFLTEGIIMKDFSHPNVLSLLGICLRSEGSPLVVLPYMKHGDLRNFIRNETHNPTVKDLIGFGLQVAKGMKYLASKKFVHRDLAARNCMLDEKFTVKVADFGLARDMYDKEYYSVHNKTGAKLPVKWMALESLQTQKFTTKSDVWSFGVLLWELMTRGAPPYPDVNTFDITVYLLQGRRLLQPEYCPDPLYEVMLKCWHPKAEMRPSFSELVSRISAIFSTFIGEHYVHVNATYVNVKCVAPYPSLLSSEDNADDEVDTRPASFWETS

B1: Ab241 (antibody, human IgG1, V domains shown)
VH: EVQLVESGGGLVQPGGSLKLSCAASGFTFSDSYMAWVRQAPGKGLEWVASISSDGGGTYYRDSVKGRFTISRDNAKSSLYLQMDSLRTEDTATYYCTTEGIYTTDYYPYCFNYWGQGVMVTVSS
VL: DIQMTQSPSSLSASVGDRVTITCLASADIHSNLAWYQQKPGKAPQLLIYYGNNLNDGVPSRFSGSGSGTDYTLKINSLQSEDVAIYFCQQSYDSPPTFGQGTKLEIKR
notes: Composite human (humanized) antibody, human IgG1, kappa
relative IC50 (against Ab237C) [1]: ~1.22 relative to IC50 of Ab237C
IC50 relative to the IC50 of Ab237C [2]: ~0.97 relative to IC50 of Ab237C

From US20180057595A1 (CELLDEX THERAPEUTICS, published 2018)
